Data: patent US20220041744A1 (INNATE PHARMA, published 2022)

T1: human recombinant soluble CD73 protein (human, UniProt P21589 27-547)
T1 construct: also called huCD73; rhCD73
T1 sequence: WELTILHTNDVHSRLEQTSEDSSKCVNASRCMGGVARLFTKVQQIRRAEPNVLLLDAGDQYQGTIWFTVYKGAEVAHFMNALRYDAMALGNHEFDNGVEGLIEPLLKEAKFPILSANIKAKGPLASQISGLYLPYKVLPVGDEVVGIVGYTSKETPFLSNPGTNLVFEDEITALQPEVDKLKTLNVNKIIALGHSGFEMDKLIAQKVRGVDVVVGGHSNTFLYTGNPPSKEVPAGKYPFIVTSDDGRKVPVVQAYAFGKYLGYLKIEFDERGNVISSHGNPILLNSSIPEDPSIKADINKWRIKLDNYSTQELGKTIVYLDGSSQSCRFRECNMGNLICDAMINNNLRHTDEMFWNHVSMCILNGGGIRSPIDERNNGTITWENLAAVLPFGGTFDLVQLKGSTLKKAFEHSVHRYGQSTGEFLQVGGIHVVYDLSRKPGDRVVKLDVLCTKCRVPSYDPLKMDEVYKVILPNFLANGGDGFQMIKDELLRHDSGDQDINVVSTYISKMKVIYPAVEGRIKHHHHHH

T2: human CD73 expressed at the surface of cells (human, UniProt P21589 27-549)
T2 construct: T cells in the proliferation assays; also called huCD73; CD73-expressing cells
T2 sequence: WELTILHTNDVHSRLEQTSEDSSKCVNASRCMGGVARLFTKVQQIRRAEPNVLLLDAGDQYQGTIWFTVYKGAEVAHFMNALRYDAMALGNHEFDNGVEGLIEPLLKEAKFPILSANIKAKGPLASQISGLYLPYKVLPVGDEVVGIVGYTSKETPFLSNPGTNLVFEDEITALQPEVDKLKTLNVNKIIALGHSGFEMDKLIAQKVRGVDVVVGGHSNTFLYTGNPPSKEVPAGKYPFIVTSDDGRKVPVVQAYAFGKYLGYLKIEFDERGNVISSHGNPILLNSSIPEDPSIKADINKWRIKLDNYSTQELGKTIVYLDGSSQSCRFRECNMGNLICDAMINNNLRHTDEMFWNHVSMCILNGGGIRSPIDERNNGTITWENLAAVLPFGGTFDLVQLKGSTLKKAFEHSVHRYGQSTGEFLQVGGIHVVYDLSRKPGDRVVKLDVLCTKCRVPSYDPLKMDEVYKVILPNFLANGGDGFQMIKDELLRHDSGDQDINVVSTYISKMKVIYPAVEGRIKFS


Experiments:
[1] = target: T1, human recombinant soluble CD73 protein; experiment: SPR, Ab captured on Protein A, soluble huCD73 as analyte
Protocol: SPR measurements were performed on a Biacore™ T200 apparatus at 25° C. Protein-A (GE Healthcare) was immobilized on a Sensor Chip CM5 (GE Healthcare). […] The entire sensorgram sets were fitted using the 1:1 kinetic binding model. Bivalent affinities and kinetic association and dissociation rate constants are calculated.
The binding of the antibodies in Table 2 of Example 1 were tested for binding to human soluble dimeric CD73 proteins and were cloned, produced and purified. Affinity and association and dissociation constants of humanized variants were assessed by SPR analysis.

[2] = target: T2, human CD73 expressed at the surface of …; experiment: flow cytometry titration on transfected cells expressing human CD73, PE goat anti-human IgG (H+L) detection, MFI
[3] = target: T3, cynomolgus CD73 expressed on transfected cells (cynomolgus monkey (Macaca fascicularis)); experiment: flow cytometry titration on transfected cells expressing cynomolgus CD73, PE goat anti-human IgG (H+L) detection, MFI
T3 construct: cell-surface expressed on a transfected cell line; Same protein as m38, which is the recombinant soluble form; It is kept apart from m38 as the first reading kept m36 and m37 apart for human CD73; also called cynomolgus CD73 protein (cell surface); cyCD73

Binder	Kd [1] [nM]	koff [1] [s⁻¹]	kon [1] [M⁻¹ s⁻¹]	EC50 (read off the curve) [2] [µg/mL]	EC50 (read off the curve) [3] [µg/mL]
H1L0 (antibody, human IgG1, V domains shown, L0 VL limits counted by alignment with L1) VH: QIQLVQSGAEVKKPGASVKVSCKASGYTFTSYNMYWVRQAPGQRLEWMGYIDPYNGGSSYNLTFKGRVTITRDKSASTAYMELSSLRSEDTAVYYCARGYGNYKAWFAYWGQGTLVTVSS VL: DIQMTQSPSSLSASVGDRVTITCKASQSVSNDVAWYQQKPGKAPKLLIYYASTRYTGVPSRFSGSGSGTDFTFTISSLQPEDIATYYCQQDYSSLTFGQGTKLEIK	28.7	0.00296	103000	~0.2	–
H3L0 (antibody, human IgG1, V domains shown, L0 VL limits counted by alignment with L1) VH: QIQLVQSGAEVKKPGASVKVSCKASGYAFTSYNMYWVRQAPGQSLEWIGYIDPYNGGSSYNLTFKGKATITVDKSASTAYMELSSLRSEDTAVYYCARGYGNYKAWFAYWGQGTLVTVSS VL: DIQMTQSPSSLSASVGDRVTITCKASQSVSNDVAWYQQKPGKAPKLLIYYASTRYTGVPSRFSGSGSGTDFTFTISSLQPEDIATYYCQQDYSSLTFGQGTKLEIK	29.4	0.00797	271000	~0.2	~0.2
H1L2 (antibody, human IgG1, V domains shown) VH: QIQLVQSGAEVKKPGASVKVSCKASGYTFTSYNMYWVRQAPGQRLEWMGYIDPYNGGSSYNLTFKGRVTITRDKSASTAYMELSSLRSEDTAVYYCARGYGNYKAWFAYWGQGTLVTVSS VL: DIQMTQSPSSLSASVGDRVTITCKASQSVSNDVAWYQQKPGKAPKLLIYYASTRYTGVPDRFSGSGYGTDFTFTISSLQPEDIATYYCQQDYSSLTFGQGTKLEIK	0.6	8.38e-05	135000	–	~0.2
H2L1 (antibody, human IgG1, V domains shown) VH: QIQLVQSGAEVKKPGASVKVSCKASGYAFTSYNMYWVRQAPGQSLEWMGYIDPYNGGSSYNLTFKGRVTITVDKSASTAYMELSSLRSEDTAVYYCARGYGNYKAWFAYWGQGTLVTVSS VL: DIQMTQSPSSLSASVGDRVTITCKASQSVSNDVAWYQQKPGKAPKLLIYYASTRYTGVPSRFSGSGYGTDFTFTISSLQPEDIATYYCQQDYSSLTFGQGTKLEIK	1.4	0.000118	83700	~0.1	–
H4L1 (antibody, human IgG1, V domains shown) VH: QIQLVQSGAEVKKPGASVKVSCKASGYAFASYNMYWVRQAPGQSLEWIGYIDPYNGGSSYNLTFKGKATLTVDKSASTAYMELSSLRSEDTAVYYCARGYGNYKAWFAYWGQGTLVTVSS VL: DIQMTQSPSSLSASVGDRVTITCKASQSVSNDVAWYQQKPGKAPKLLIYYASTRYTGVPSRFSGSGYGTDFTFTISSLQPEDIATYYCQQDYSSLTFGQGTKLEIK	1.7	0.000179	106000	–	~0.2
H2L0 (antibody, human IgG1, V domains shown, L0 VL limits counted by alignment with L1) VH: QIQLVQSGAEVKKPGASVKVSCKASGYAFTSYNMYWVRQAPGQSLEWMGYIDPYNGGSSYNLTFKGRVTITVDKSASTAYMELSSLRSEDTAVYYCARGYGNYKAWFAYWGQGTLVTVSS VL: DIQMTQSPSSLSASVGDRVTITCKASQSVSNDVAWYQQKPGKAPKLLIYYASTRYTGVPSRFSGSGSGTDFTFTISSLQPEDIATYYCQQDYSSLTFGQGTKLEIK	–	–	–	~0.2	~0.2
H3L1 (antibody, human IgG1, V domains shown) VH: QIQLVQSGAEVKKPGASVKVSCKASGYAFTSYNMYWVRQAPGQSLEWIGYIDPYNGGSSYNLTFKGKATITVDKSASTAYMELSSLRSEDTAVYYCARGYGNYKAWFAYWGQGTLVTVSS VL: DIQMTQSPSSLSASVGDRVTITCKASQSVSNDVAWYQQKPGKAPKLLIYYASTRYTGVPSRFSGSGYGTDFTFTISSLQPEDIATYYCQQDYSSLTFGQGTKLEIK	1.8	0.00014	78900	~0.3	–
H1L1 (antibody, human IgG1, V domains shown) VH: QIQLVQSGAEVKKPGASVKVSCKASGYTFTSYNMYWVRQAPGQRLEWMGYIDPYNGGSSYNLTFKGRVTITRDKSASTAYMELSSLRSEDTAVYYCARGYGNYKAWFAYWGQGTLVTVSS VL: DIQMTQSPSSLSASVGDRVTITCKASQSVSNDVAWYQQKPGKAPKLLIYYASTRYTGVPSRFSGSGYGTDFTFTISSLQPEDIATYYCQQDYSSLTFGQGTKLEIK	0.8	8.43e-05	100000	–	~0.2
chimeric parental 3C12 antibody (antibody, human IgG1, V domains shown, also called HPLP; parental antibody 3C12) VH: QIQLQQSGPELVKPGASVKVSCKASGYAFASYNMNWVKQSHGKSLDWIGYIDPYNGGSSYNLTFKGKATLTVDKSSTTAYMHLNSLTSEDSAVYYCARGYGNYKAWFAYWGQGTLVTVSA VL: DVVMTQTPKFLLVSAGDRVTITCKASQSVSNDVAWYQQKPGQSPKLLIYYASTRYTGVPDRFTGSGYGTDFTFTISTVQAEDLAVYFCQQDYSSLTFGAGTKLELK	0.68	–	–	–	~0.2
